According to a protein production outcome set (Wang et al. 2014):

Assay: label from the status in PepcDB records
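Note: failed if final PepcDB status was selected cloned or expressed and not failed if soluble or beyond.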

Question: With “MKWARPSMHSSAQRKLIMTRILSIIGVSLCIAMLSPVLQAANLKTLDVAALPGDRIELKLAFDAPVPAPRGYTTAQPARIALDLPGVTSQLETKSRELGTGNARSVVVVQAQDRTRVIINLTTLAPYSSRVDGNNLFVVIGQGAAAAQASQPTTAMGAQRVAVPPPAPASARPFIPAGVKAIRNVDFQRGELGEGNVVIDLSNPSIAPDIQEQGGKIRVDFAKTQLPEPLRVRLDVKDFATPVQFVSASATGDKASILIEPSGAFDYSAFQTENKLTISVRPLTNEDLDRRAADKPVYTGEKLSLNFQDIDVRSVLQLIADFTNLNLVASDTVQGGITLRLQNVPWDQALDLVLKTKGLDKRKVGSVLLVAPADEIAARERQELESLKQIAELAPLRRELLQVNYAKAADIAKLFQSVTSAESKAEERGSITVDDRTNNIIAYQTQDRLDELRRIVSQLDIPVRQVMIEARIVEANVDYNKQLGVRWGGSTNTSRNGKWTTYGLDDNGDEGGNTNANLTSNIPFVDLGAADATTGIGLGFVTNNTLLDLELSAMEKTGNGEIVSQPKVVTSDKETAKILKGTEIPYQESSSSGATTVSFKEASLSLEVTPQITPDNRIIMEVKVTKDEPDYLNAVLGVPPIKKNEVNAKVLISDGETIVIGGVFSNTQSKVVDKVPFLGDVPYLGRLFRRDVVSESKSELLVFLTPRIMNNQAISVSR” as the sequence, how does the protein production read?
Answer: failed

Question: Which protein production does the source give for “MKYLASFRTTLKASRYMFRALALVLWLLIAFSSVFYIVNALHQRESEIRQEFNLSSDQAQRFIQRTSDVMKELKYIAENRLSAENGVLSPRGRETQADVPAFEPLFADSDCSAMSNTWRGSLESLAWFMRYWRDNFSAAYDLNRVFLIGSDNLCMANFGLRDMPVERDTALKALHERINKYRNAPQDDSGSNLYWISEGPRPCVGYFYALTPVYLANRLQALLGVEQTIRMENFFLPGTLPMGVTILDENGHTLISLTGPESKIKGDPRWMQERSWFGYTEGFRELVLKKNLPPSSLSIVYSVPVDKVLERIRMLILNAILLNVLAGAALFTLARMYERRIFIPAESDALRLEEHEQFNRKIVASAPVGICILRTADGVNILSNELAHTYLNMLTHEDRQRLTQIICGQQVNFVDVLTSNNTNLQISFVHSRYRNENVAICVLVDVSSRVKMEESLQEMAQAAEQASQSKSMFLATVSHELRTPLYGIIGNLDLLQTKELPKGVDRLVTAMNNSSSLLLKIISDILDFSKIESEQLKIEPREFSPREVMNHITANYLPLVVRKQLGLYCFIEPDVPVALNGDPMRLQQVISNLLSNAIKFTDTGCIVLHVRADGDYLSIRVRDTGVGIPAKEVVRLFDPFFQVGTGVQRNFQGTGLGLAICEKLISMMDGDISVDSEPGMGSQFTVRIPLYGAQYPQKKGVEGLSGKRCWLAVRNASLCQFLETSLQRSGIVVTTYEGQEPTPEDVLITDEVVSKKWQGRAVVTFCRRHIGIPLEKAPGEWVHSVAAPHELPALLARIYLIEMESDDPANALPSTDKAVSDNDDMMILVVDDHPINRRLLADQLGSLGYQCKTANDGVDALNVLSKNHIDIVLSDVNMPNMDGYRLTQRIRQLGLTLPVIGVTANALAEEKQRCLESGMDSCLSKPVTLDVIKQTLTVYAERVRKSRDS” here?
Answer: failed

Question: For “MKYLLIFLLVLAIFVISVTLGAQNDQQVTFNYLLAQGEYRISTLLAVLFAAGFAIGWLICGLFWLRVRVSLARAERKIKRLENQLSPATDVAVVPHSSAAKE”, which protein production is on record?
Answer: failed

Question: With “MKYNYTVLLSAFTMSVLYSVIYIHSFIIAALITMAFYFLFPYLIFALPLQIMMNKKPKRFSPLYLLYYLAAAFIANAIIFGMLQPSGQSLFQNTAFYLFAVLTALIYWIWDSVLLQKKEA” as the sequence, how does the protein production read?
Answer: failed

Question: For “MKYQNFIMRILCLLLILAAVVGYNSMQKKDTQAQESQEITALTKRVEKLEEQNTEILSALEEAAKNQEAAIAQAQRDAKDKDDAAKEDAEGADAADTEESDDSENVYKDGTYTGSAQGFGGAITVQVTLANDEITDIQVTSAPGEDSAYLSQGEGVISSIISAQSTDVDTVSGATFSSTGIINAVVDALGKAEN”, which protein production is on record?
Answer: failed

Question: With “MKYSLCTISFRHQLISFTDIVQFAYENGFEGIELWGTHAQNLYMQEYETTERELNCLKDKTLEITMISDYLDISLSADFEKTIEKCEQLAILANWFKTNKIRTFAGQKGSADFSQQERQEYVNRIRMICELFAQHNMYVLLETHPNTLTDTLPSTLELLGEVDHPNLKINLDFLHIWESGADPVDSFQQLRPWIQHYHFKNISSADYLHVFEPNNVYAAAGNRTGMVPLFEGIVNYDEIIQEVRDTDHFASLEWFGHNAKDILKAEMKVLTNRNLEVVTS” as the sequence, how does the protein production read?
Answer: not failed

Question: Which protein production does the source give for “MKYWMLLFALLWVSYGTGMARKTEKVVNNGIPWFDDRGEIVNAHGACIVEENGRYYLFGEYKSDKSNAFPGFSCYSSDDLVNWKFERVVLPMQSSGILGPDRVGERVKVMKCPSTGEYVMYMHADDMNYKDPHIGYATCSTIAGEYKLHGPLLYEGKPIRRWDMGTYQDTDGTGYLLLHGGIVYRLSKDYRTAEEKVVSGVGGSHGESPAMFKKDGTYFFLFSNLTSWEKNDNFYFTAPSVKGPWTRQGLFAPEGSLTYNSQTTFVFPLKCGEDTIPMFMGDRWSYPHQASAATYVWMPMQVDGTKLSIPEYWPSWDVDKLKPVNPLRKGKTVDLKKITFSKEADWKVEEGRISSNVKGSTLSIPFTGSCVAVMGETNCHSGYARMNILDKKGEKIYSSLVDFYSKANDHATRFKTPQLAEGEYTLVIEVTGISPTWTDKTKRIYGSDDCFVTITDIVKL” here?
Answer: failed

Question: For “MLAALEVAVPALYAVAIVVLTAYGGNLLWLALVHAASERLRDGPVPDPDDLPVPDDDWPVVTVQLPLYNEAEVAHRLIDACVQLDYPRSRLDIQVLDDSTDATTERVARRVAHWQAEGVNITHVRRDDRTGYKAGALANGLQRARGDLIAIFDADFVPRPSFLRRLVPRFFDAPDLGMVQARWGHLNRDDSLLTKVQAFGLDAHFAIEQRVRELAGCFLNFNGTAGVWRRACIEDAGGWAHDTLTEDLDLSYRAQLQGWRLTYVPAAEAPAELPPDMNALRAQQFRWAKGGAETALKLTGRLWRSAQPWRVKLEGTFHLTAHFAFPFILLAALTHAPLLLLKGIGHGPGEVYFAVMGFGLFGFAGFFLAQLFAQRALHPDWRRRLRLFVPFMAGTMGLSLSNTSAVWQALRGTDTAFIRTPKVGSAGGDGWWESRYAIREVPRIVWGELALAVYSTVGLGVVIGLGEWAAVPFQALFALGFALVTASSLRQALTAQQGPTASAPASSPAA”, which protein production is on record?
Answer: failed

Question: For “MLAALFSIAAVFGFHAEDEPYIVTLPWYELFSSAAKAVAGTIHNPFGLFGARVSVFFIRVLLGYPSVMPLFGFLVLGWHLFRAKPLGPGLFFLVYTLLMALDLSAMFGLSMLPLADLMSGATGRMMASFLSTVIGYPGAWALTAIIAAVLTFYMGRDFIVDTIAGVSGFFGKLLATVQAIRAERHRKRREKEEMRVRKKAERMAAVLEKEQRKRDKKAQRARKAGDASKQKAAPFENSPETPAPVMDVEPAPPLLNPAVSEPVVIPAEVEEIRTPEPAPVRPEEGPEMIIKPGVQEAEADLDERALKVRTHDHVKYRFPSIDLLRRPKDEDESYDERHLAETKDRLLEKLRIYKIDVIRIATTVGPRVALFELELAPEVKISRIKSLENDLAMAMASSSGGIRIIAPIPGKNAIGVEIPISKPRPVVMRSVLQVEKFKNNSMALPIVLGKSISNEVIVDDLAAMPHLLIAGATGAGKSVAINVLLTSLLYSKKPDEVKFVLIDPKRVELKPYKLLKDHFLPKIPGMEEQIIVTDPQKAVSALRSVVREMEHRYELLEQCGVRNIGEYNRKMKDEAMFYLVVVVDELADLMITAGREVEEPITRLAQMARAVGIHLIVATQRPSVDIITGIIKANFPSRIAFQVASKVDSRTILDVSGAEQLLGSGDMLFQSAKMSKPQRIQCPYISLSEVDAITEFIGQQPPLRAECMLPEPPSSSGNGSSSGFDQDRGRRDSMFEEAARLVVMHQQASVSLLQRRLRLGFSRAGRVMDQLEQSGIVSAGDGSKPREVLVKNEDSLELLLRNLD”, which protein production is on record?
Answer: failed

Question: For “MLAELFAVMAPVLFGAGVGYVWVRLGHAYPTEFVSRIVFNIGSPCLILATLAHTRVDLHSFGRMALASALICVCMAALGWAAARLGRQEWQVLVPAYSFPNVGNMGLPVCLYAFGEAGMTLAVAFYLIMSIGNFSLGVFWMSGERSWRSLLGNPILLSVLLALLLMGLDLQLPRWMANTVDLMAGLTIPLMLITLGVSLASIRPRQLGNGFFYGGLRLLLGALVGWSVALALQLPPLAQGVLVVQSSMPVAVFNYLYALRGNRSPDQVASLVLCSTLLSFAFIPLLLTWWLPALR”, which protein production is on record?
Answer: failed
